From patent US20240092922A1 come the findings set out here.

Assay [1] has as its target chimeric (mouse and human) 4-1BB (c4-1BB) on transfected CHO cells (chimeric (mouse and human)). Nature of the assay: flow cytometry on CHO-c4-1BB cells, negative control panel, detection with anti-mouse-IgG-Fc-FITC (1:100). On the technique in general: Flow cytometry measures light scatter and fluorescence of single cells or particles in a stream.
Assay [2] addresses mouse 4-1BB (m4-1BB) on transfected CHO cells (mouse) (UniProt P20334). The assay can be described thus: flow cytometry on CHO-m4-1BB cells, negative control panel, detection with anti-mouse-IgG-Fc-FITC (1:100).
Assay [3] addresses monkey (Rhesus macaque) 4-1BB (r4-1BB) on transfected CHO cells (monkey (Rhesus macaque)). Nature of the assay: flow cytometry on CHO-r4-1BB (T) cells, negative control panel, detection with anti-mouse-IgG-Fc-PE (1:500).
The target of assay [4] is human 4-1BB (h4-1BB) on transiently transfected CHO cells (human) (UniProt Q07011). Nature of the assay: flow cytometry on CHO cells transiently transfected with human 4-1BB, detection with anti-mouse-IgG-Fc-FITC (1:100), SSC-H against FITC; negative control panel.
For assay [5], the target named is Histidine-tagged human 4-1BB protein (h4-1BB-His) (human) (UniProt Q07011). The assay can be described thus: SPR (Biacore T200), antibody on Protein A chip, h4-1BB-His injected. Background: Surface plasmon resonance follows binding to a sensor surface in real time, without labels.

Sequence of urelumab (antibody) (VH): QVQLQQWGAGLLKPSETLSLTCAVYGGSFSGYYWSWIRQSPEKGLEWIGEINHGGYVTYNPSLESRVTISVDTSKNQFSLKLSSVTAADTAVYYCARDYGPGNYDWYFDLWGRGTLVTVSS
Sequence of urelumab (antibody) (VL): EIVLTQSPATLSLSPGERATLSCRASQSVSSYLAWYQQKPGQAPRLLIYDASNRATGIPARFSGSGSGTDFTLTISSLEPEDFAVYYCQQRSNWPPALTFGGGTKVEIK

In the case of NC, the percent of cells in the FITC-positive gate in assay [1] worked out at 1.07%; in assay [2], 0.983%; in assay [4] it was 0.598%. Further, the percent of cells in the PE-positive gate in assay [3] is 0.429%.
urelumab (antibody): in assay [5], the Kd – broadly, the equilibrium constant for the complex coming apart – amounted to 44.3 nM; the koff (commonly a measure of how fast the partners let go of each other) worked out at 0.00302 s⁻¹; the kon (as a rule, the second-order rate constant of association) is 68100 M⁻¹ s⁻¹.
